Measured values reported in patent US20210347846A1.

Experiments:
[1] = biological target: transient receptor potential melastatin subfamily member 4 (TRPM4), mouse (mouse) (UniProt Q7TN37); test: co-immunoprecipitation with anti-TRPM4 antibody from cortical lysates of mice 6 h after i.p. injection of small-molecule compound P4 (40 mg/kg), against control mice
[2] = biological target: transient receptor potential melastatin subfamily member 4 (TRPM4), mouse (mouse) (UniProt Q7TN37); test: co-immunoprecipitation with anti-TRPM4 antibody from cortical lysates of mice 2 h after i.p. injection of small-molecule compound P4 (40 mg/kg), against control mice

Chain of UniProt Q7TN37 (Q7TN37 whole entry): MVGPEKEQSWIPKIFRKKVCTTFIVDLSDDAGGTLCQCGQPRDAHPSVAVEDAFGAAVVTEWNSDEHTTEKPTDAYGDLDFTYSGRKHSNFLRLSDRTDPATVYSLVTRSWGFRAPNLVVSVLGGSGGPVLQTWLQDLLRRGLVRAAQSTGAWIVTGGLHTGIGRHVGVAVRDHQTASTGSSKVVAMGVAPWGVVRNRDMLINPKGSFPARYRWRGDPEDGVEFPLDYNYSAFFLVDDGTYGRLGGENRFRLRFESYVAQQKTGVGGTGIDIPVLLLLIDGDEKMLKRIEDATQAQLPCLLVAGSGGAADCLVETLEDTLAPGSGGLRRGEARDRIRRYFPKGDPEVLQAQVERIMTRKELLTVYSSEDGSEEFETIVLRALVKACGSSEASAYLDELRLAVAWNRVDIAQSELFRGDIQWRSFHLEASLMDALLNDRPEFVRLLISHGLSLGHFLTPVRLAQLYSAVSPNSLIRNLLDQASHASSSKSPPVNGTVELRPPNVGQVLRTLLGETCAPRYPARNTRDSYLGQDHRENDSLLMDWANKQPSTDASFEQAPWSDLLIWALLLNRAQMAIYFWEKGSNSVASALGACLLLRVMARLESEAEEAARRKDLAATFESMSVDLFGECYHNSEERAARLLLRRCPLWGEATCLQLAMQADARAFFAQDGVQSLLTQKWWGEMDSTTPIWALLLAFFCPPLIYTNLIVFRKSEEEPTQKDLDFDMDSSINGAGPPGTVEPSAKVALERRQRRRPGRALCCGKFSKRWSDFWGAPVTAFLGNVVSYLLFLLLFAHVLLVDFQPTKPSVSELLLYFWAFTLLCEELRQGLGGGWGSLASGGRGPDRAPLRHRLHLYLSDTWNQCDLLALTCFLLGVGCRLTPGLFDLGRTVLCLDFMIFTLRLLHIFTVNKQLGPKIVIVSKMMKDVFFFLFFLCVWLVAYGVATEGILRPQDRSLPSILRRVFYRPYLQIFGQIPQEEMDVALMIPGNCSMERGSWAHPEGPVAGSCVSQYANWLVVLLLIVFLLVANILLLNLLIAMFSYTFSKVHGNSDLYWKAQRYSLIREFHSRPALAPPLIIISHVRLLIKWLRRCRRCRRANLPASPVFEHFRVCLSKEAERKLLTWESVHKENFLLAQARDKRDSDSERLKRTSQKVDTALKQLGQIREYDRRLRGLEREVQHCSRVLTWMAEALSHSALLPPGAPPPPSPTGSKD

reduction in NMDA receptor/TRPM4 complex formation [1]: 61%
reduction in NMDA receptor/TRPM4 complex formation [2]: 51%
Substance: GRIN2B subunit of the NMDA receptor, mouse (from UniProt Q01097 27-1482)
